Tests used:
ARH-77 cells = assay: ADCC fluorescence cytotoxicity assay, ARH-77; format: cell-based, human; conditions: target to effector ratio 1:50
Experimental: In this example, anti-CD70 monoclonal antibodies were tested for the ability to kill CD70+ cell lines in the presence of effector cells via antibody dependent cellular cytotoxicity (ADCC) in a fluorescence cytotoxicity assay.
Human effector cells were prepared from whole blood as follows. Human peripheral blood mononuclear cells were purified from heparinized whole blood by standard Ficoll-paque separation. The cells were resuspended in RPMI1640 media containing 10% FBS and 200 U/ml of human IL-2 and incubated overnight at 37° C. The following day, the cells were collected and washed four times in culture media and resuspended at 2×10^7 cells/ml. […]
The CD70+ cell lines ARH-77 (human B lymphoblast leukemia; ATCC Accession No. CRL-1621), HuT 78 (human cutaneous lymphocyte lymphoma; ATCC Accession No. TIB-161), Raji (human B lymphocyte Burkitt's lymphoma; ATCC Accession No. CCL-86) and a negative control cell line L540 (human Hodgkin's lymphoma; DSMZ Deposit No. ACC 72) were tested for antibody specific ADCC to the human anti-CD70 monoclonal antibodies using the Delfia fluorescence emission analysis as follows. […]
In this example, a defucosylated and non-defucosylated anti-CD70 monoclonal antibody was tested for the ability to kill CD70+cells in the presence of effector cells via antibody dependent cellular cytotoxicity (ADCC) in a fluorescence cytotoxicity assay […]

[1] = tested on: CMV activated CD70+/CD4+ cells; assay: CMV Ag stimulated human CD4+ T cell expansion; format: cell-based; conditions: 2 μg/ml, day 9
Experimental: CMV positive pre-screened donors were cultured in AIM-V media supplemented with 10% heat-inactivated FCS at 1×10^6 cells/ml on 24-well culture plates and stimulated with 5.0 μg/ml of CMV lysate in the presence of 2 μg/ml of biotinylated 2H5, 2H5 NF or hIgG1nf control Abs. Cells were harvested on day 9 and the number of viable cells/ml in each culture was determined by counting an aliquot using a hemocytometer and trypan blue exclusion. The cells were washed in staining buffer and blocked with 5% human serum. Biotinylated 2H5, 2H5 NF, or hIgG1nf were added to an equal volume of cells at 20 μg/ml final concentration. Cells were incubated for 30 minutes, washed and stained with anti-CD4-FITC and PE-conjugated streptavidin. Cells were again incubated for 30 minutes, washed twice and then fixed and permeabilized using BD Cytofix/Cytoperm kit. The cells were washed twice in perm/wash buffer and intracellular stained with anti-INFγ-APC (BD Clone B27). […] Cells were analyzed by flow cytometry for CD70 surface and INFγ intracellular expression by gating on live CD4+ cells. The number of CD4+/CD70+ and CD4+/INFγ+ cells/ml in each condition were calculated by multiplying the percent CD70+ or INFγ+ cells in the CD4 gate by the percent of total CD4+ cells times the total number of viable cells/ml ((%CD70+ or INFγ+)×(%CD4+)×(total viable cells/ml)).

activated human B cells = assay: Binding to and ADCC of activated human B cells (51Cr); format: cell-based
Experimental: In this study, a HuMAb anti-CD70 antibody and the nonfucosylated form were tested for their ability to mediate ADCC effects on human B cells. Frozen human spleen cells were thawed and B cells were negatively purified by magnetic beads. Purified B cells were cultured at 2×10^6/ml in RPMI+10% FBS supplemented with NEAA, sodium pyruvate, β-ME and penicillin/streptomycin. B cells were activated by 10 μg/ml of LPS and 5 μg/ml anti-CD40 for 3 days. The cells were harvested, washed and an aliquot was stained with biotin conjugated nonfucosylated 2H5 (2H5 NF-bio)+streptavidin-APC. Human peripheral blood mononuclear effector cells were purified from heparinized whole blood by standard Ficoll-Paque separation and cultured overnight in of 50 U/ml IL-2. The activated B cells were labeled with 100 μCi of Na2 ^51CrO4 (Perkin Elmer, Wellesley, Mass.) per 1×10^6 cells for 1 hour. Effector cells were added to labeled target cells at a ratio of […] in the presence of serial dilutions of 2H5 and 2H5 NF (non-fucosylated). In addition, the test articles were assayed at 10 μg/ml in the presence of 20 μg/ml murine anti-CD 16 antibody 3G8 or mouse isotype control antibody. Following […] for 4 hours at 37° C., cells were centrifuged and the supernate was read on the Cobra II auto-gamma counter (Perkin Elmer) with a reading window of 240-400 KeV. The percent specific lysis was calculated as: (experimental release−spontaneous release)/(maximal release−spontaneous release)×100 where: (i) target cells with no effector cells and no antibody control for spontaneous release and (ii) target and effector cells in presence of 3% Lysol detergent control for maximal release. Percent specific lysis was plotted against antibody concentration and the data was analyzed by non-linear regression, sigmoidal dose response (variable slope) using GraphPad Prism™ 3.0 software (San Diego, Calif.).

B1: 2H5 NF: 2H5 HuMAb lacking fucosyl residues, expressed in CHO cell line Ms704-PF (antibody, V domains shown)
VH: QVQLVESGGGVVQPGRSLRLSCAASGFTFSSYIMHWVRQAPGKGLEWVAVISYDGRNKYYADSVKGRFTISRDNSKNTLYLQMNSLRAEDTAVYYCARDTDGYDFDYWGQGTLVTVSS
VL: EIVLTQSPATLSLSPGERATLSCRASQSVSSYLAWYQQKPGQAPRLLIYDASNRATGIPARFSGSGSGTDFTLTISSLEPEDFAVYYCQQRTNWPLTFGGGTKVEIK
For B1, the “ADCC, % lysis of ARH-77” value (ARH-77 cells) was “increased percentage of specific lysis”, the “depletion of CMV activated CD70+/CD4+ cells” value [1] was 97% and the “potency relative to 2H5” value (activated human B cells; ADCC of activated human B cells) was “approximately 10 fold”. The “activated B cells bound” value (activated human B cells; biotin conjugated 2H5 NF + streptavidin-APC, FACS) was about 60% and the “lysis of activated human B cells (ADCC)” value (activated human B cells; effector to target 1:100 as printed, 4 hours) was “induced lysis”.

Source: US20100150950A1, “HUMAN ANTIBODIES THAT BIND CD70 AND USES THEREOF” (Medarex, Inc., priority 2006, published 2010)
